Laboratory results: patent publication US20140193417A1 (LUDWIG INSTITUTE FOR CANCER RESEARCH, published 2014)

Tests used:
[1] = biological target: T1, NaPi2b mutant T330V expressed in stably transfected HEK293 cells (pcDNA3.1/NaPi2b-T330V) (human, UniProt O95436 1-690); experiment: Western blot of lysates of stably transfected HEK293 cells
T1 construct: whole, on cells; Made by site-directed mutagenesis of pcDNA3.1/NaPi2b; also called mutant form T330V; not shown: EE-tag
T1 sequence (looked up): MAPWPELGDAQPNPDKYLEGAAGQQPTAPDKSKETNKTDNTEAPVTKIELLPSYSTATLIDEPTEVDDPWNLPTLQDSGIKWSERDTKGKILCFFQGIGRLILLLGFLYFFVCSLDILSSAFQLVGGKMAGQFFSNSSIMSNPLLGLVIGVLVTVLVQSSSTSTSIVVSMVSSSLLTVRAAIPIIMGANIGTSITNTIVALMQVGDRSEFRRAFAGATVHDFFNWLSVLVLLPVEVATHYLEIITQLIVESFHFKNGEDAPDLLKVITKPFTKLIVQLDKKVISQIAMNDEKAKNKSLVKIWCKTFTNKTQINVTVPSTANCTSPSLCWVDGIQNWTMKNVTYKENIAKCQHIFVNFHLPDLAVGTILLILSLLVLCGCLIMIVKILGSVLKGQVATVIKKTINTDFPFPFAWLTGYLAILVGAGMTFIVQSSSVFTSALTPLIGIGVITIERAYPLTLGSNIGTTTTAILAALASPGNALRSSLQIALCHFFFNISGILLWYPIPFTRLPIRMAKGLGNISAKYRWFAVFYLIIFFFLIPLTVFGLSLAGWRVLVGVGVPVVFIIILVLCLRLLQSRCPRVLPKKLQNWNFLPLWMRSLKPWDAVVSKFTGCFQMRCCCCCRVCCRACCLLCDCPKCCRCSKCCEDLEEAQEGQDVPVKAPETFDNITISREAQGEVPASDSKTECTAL
Method: Stably transfected HEK293 cells were lysed in buffer containing 10 mM Tris-HCl, pH 7.5, 150 mM NaCl, 10 mM MgCL₂, 0,5% NP-40, and a mixture of Halt Protease Inhibitor Cocktail (Pierce, USA). Protein concentration was measured by Bradford assay (Pierce, USA), and equal amounts of proteins (10 μg) were separated in 8% SDS-PAGE and blotted to polyvinylidene difluoride (PVDF) membrane (Millipore, USA). The membrane was blocked with 3% BSA in PBS (phosphate-saline buffer) containing 0.1% Tween-20 (PBST) for 1 h. Anti-NaPi2b and anti-EE-tag antibodies were incubated with membranes at 4° C. overnight. Generation of monoclonal antibodies against the extracellular loop of transporter was previously described. After washing with PBST, HRP-conjugated goat anti-mouse IgG 1:5000 (Promega, USA) was added to the membrane for 1 h at RT. Western blots were developed using the ECL system (Amersham, Sweden) and then exposed to Agfa X-ray film.
The expression of NaPi2b (wild type and mutant forms) in HEK293 was confirmed by Western blot analysis of total cell lysates with anti-EE monoclonal antibody (FIG. 22A) or anti-NaPi2b monoclonal antibodies (FIG. 22B).

[2] = biological target: T2, His-NaPi2b-ECD (His-tagged aa 188-361 of NaPi2b, Sf9 insect cells) (human, UniProt O95436 188-361); experiment: Western blot
T2 construct: range 188-361; Baculovirus expression; also called His-tagged protein in Sf9 insect cells; not shown: His tag
T2 sequence (looked up): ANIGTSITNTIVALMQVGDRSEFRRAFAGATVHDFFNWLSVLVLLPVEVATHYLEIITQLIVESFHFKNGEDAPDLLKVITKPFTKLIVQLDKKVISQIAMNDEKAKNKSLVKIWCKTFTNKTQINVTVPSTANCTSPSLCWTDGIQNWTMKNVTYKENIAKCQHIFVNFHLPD

[3] = biological target: T3, GST/NaPi2b-L fusion protein (aa 188-361 of NaPi2b) (human, UniProt O95436 188-361); experiment: Western blot
T3 construct: range 188-361; GST is put first here (pGEX vector); also called GST-fusion protein (covering aa 188-361 of NaPi2b); bacterial fusion protein; not shown: glutathione S-transferase (GST) tag of vector pGEX4T1
T3 sequence (looked up): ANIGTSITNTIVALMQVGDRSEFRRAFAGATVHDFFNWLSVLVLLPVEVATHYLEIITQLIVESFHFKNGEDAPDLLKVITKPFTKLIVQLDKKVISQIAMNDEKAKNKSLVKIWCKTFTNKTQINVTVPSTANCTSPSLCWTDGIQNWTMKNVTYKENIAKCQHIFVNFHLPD

murine NaPi2b protein = biological target: T4, murine NaPi2b protein (mouse, UniProt Q9DBP0 1-697); experiment: Western blot of mouse tissues (data not shown)
T4 construct: also called the murine protein; murine counterpart
T4 sequence (looked up): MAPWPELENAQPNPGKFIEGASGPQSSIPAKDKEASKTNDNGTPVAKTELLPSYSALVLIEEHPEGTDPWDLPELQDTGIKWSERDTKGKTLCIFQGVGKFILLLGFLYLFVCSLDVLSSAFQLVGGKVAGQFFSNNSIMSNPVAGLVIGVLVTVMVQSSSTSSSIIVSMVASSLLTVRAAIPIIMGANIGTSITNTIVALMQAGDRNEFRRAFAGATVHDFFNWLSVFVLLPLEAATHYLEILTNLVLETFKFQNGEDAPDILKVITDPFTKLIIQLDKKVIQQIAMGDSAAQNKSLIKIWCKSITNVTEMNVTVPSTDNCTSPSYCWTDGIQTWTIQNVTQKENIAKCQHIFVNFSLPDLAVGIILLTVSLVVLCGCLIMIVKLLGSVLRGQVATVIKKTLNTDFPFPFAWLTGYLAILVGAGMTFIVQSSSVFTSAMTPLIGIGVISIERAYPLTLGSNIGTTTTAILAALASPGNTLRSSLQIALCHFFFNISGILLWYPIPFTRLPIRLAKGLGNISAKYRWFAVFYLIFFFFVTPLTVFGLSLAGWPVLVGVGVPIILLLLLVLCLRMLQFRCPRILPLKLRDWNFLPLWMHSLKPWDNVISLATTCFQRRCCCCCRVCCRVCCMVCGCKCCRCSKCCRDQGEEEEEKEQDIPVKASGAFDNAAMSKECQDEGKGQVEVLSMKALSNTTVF

- binding result [1]: no binding
- binding result [2]: binds
- binding result [3]: binds
- binding result (murine NaPi2b protein): no binding
B1: Murine mAb MX35 (IgG1) (antibody, V domains shown)
VH: QVQLKQSGAELVKPGASVKMSCKASGYTFTGYNIHWVKQTPGQGLEWIGAIYPGNGDTSYKQKFRGKASLTADTSSSTVYMQLSSLTSEDSAVYYCARGETARATFAYWGQGTLVTVSA
VL: DIQMTQTTSSLPASLGDRVTISCSASQDIGNFLNWYQQKPDGTVKVLIYYTSSLYSGVPSRFSGSGSGTDYSLTISNLEPEDIATYYCQQYSKLPLTFGAGTKLELKR
notes: also called MX35 MAb; monoclonal antibody MX35
